Patent publication US20140079722A1, “EXTRACELLULAR TARGETED DRUG CONJUGATES” (CENTROSE, LLC, priority 2011, published 2014)
Ends that are not written are not given here.

Legend:
A549 NSCLC cells = assay: In vitro normal cell cytotoxicity study, carcinoma comparator line; format: cell-based; details: Homo sapiens, A549, 72 h
Procedure: In vitro normal cell cytotoxicity. The in vitro cytotoxic activity of M53-PEG24-CEN09-106, PEG24-CEN09-106, M53-PEG24-CEN-319, PEG24-CEN-319, proscillaridin and digitoxin against dysadherin positive primary normal human cells and a dysadherin positive human non-small cell lung carcinoma (NSCLC) cell line were tested and compared. The cells used were primary human renal epithelial cells (HREpC), primary human umbilical vein endothelial cells (HUVEC), primary human umbilical artery endothelial cells (HUAEC), and the A549 NSCLC cells. The primary cells were obtained from PromoCell GmbH, Heidelberg, Germany, and the NSCLC cell line A549 was obtained from ATCC. Primary renal epithelial cells were grown in Renal Epithelial Cell Growth Medium 2 (PromoCell GmbH, Heidelberg, Germany). Primary endothelial cells were grown in Endothelial Cell Growth Medium 2 (PromoCell GmbH, Heidelberg, Germany). […] After 72 hrs of exposure to agent, cell viability was evaluated using the Cell Titer-Glo Luminescent Cell Viability Assay (Promega, Madison, Wis.) according to the manufacturer's instructions. Luminescence measurements were performed using a Wallac Victor^2 Model 1420-041 assay plate reader (Perkin Elmer, Gaithersburg, Md.). EC50 values for each test agent were determined using GraphPad Prism 5 software.

[1] = test system: primary human renal epithelial cells (HREpC); assay: In vitro normal cell cytotoxicity; format: cell-based; details: 72 h
Procedure: (§1) In vitro normal cell cytotoxicity. The in vitro cytotoxic activity of M53-PEG24-CEN09-106, PEG24-CEN09-106, M53-PEG24-CEN-319, PEG24-CEN-319, proscillaridin and digitoxin against dysadherin positive primary normal human cells and a dysadherin positive human non-small cell lung carcinoma (NSCLC) cell line were tested and compared. The cells used were primary human renal epithelial cells (HREpC), primary human umbilical vein endothelial cells (HUVEC), primary human umbilical artery endothelial cells (HUAEC), and the A549 NSCLC cells. The primary cells were obtained from PromoCell GmbH, Heidelberg, Germany, and the NSCLC cell line A549 was obtained from ATCC. Primary renal epithelial cells were grown in Renal Epithelial Cell Growth Medium 2 (PromoCell GmbH, Heidelberg, Germany). Primary endothelial cells were grown in Endothelial Cell Growth Medium 2 (PromoCell GmbH, Heidelberg, Germany). The NSCLC cell line was grown in RPMI-1640 (HyClone, Thermo Scientific) supplemented with 10% fetal bovine serum. HREpC, HUVEC, HUAEC, and A549 cells were plated in 384 well plates at 1250, 1875, 2500, and 1250 cells/well (respectively) and allowed to incubate for 24 hrs at 37° C., 5% CO2, and 100% humidity. Various concentrations of conjugates M53-PEG24-CEN09-106 and […] and PEG24-CEN09-106 and […] were added to the wells in a total volume of 5 uL of media and the plates were incubated for an additional 72 hrs. After 72 hrs of exposure to agent, cell viability was evaluated using the Cell Titer-Glo Luminescent Cell Viability Assay (Promega, Madison, Wis.) according to the manufacturer's instructions. Luminescence measurements were performed using a Wallac Victor^2 Model 1420-041 assay plate reader (Perkin Elmer, Gaithersburg, Md.). EC50 values for each test agent were determined using GraphPad Prism 5 software.

[2] = test system: primary human umbilical vein endothelial cells (HUVEC); assay: In vitro normal cell cytotoxicity; format: cell-based; details: Homo sapiens, 72 h
Procedure: as §1

[3] = test system: primary human umbilical artery endothelial cells (HUAEC); assay: In vitro normal cell cytotoxicity; format: cell-based; details: Homo sapiens, Endothelial cell, 72 h
Procedure: as §1

[4] = Pharmacokinetics with varying drug loading (antigen binding ELISA); format: in vivo; details: unconjugated antibody, 1 mg/kg tail vein, SCID beige mice
Procedure: Serum was isolated from blood samples taken by retro-orbital blood collection at 1 hour, and 1, 2, 3, 6, and 15 days post-injection. Blood was collected into heparin coated tubes followed by centrifugation (5,000×g, 5 minutes) to isolate plasma.
Antigen capture plates that were prepared by coating wells of 96 well clear bottom ELISA plates with CENP018 (SEQ ID NO: 17) conjugated to BSA at 400 ng BSA-peptide conjugate per well in 100 uL of 200 mM carbonate buffer, pH 9.6 overnight at 4° C. Antigen coated ELISA plates were washed (×3) with PBS pH 7, blocked 30 min with PBS pH 7 containing 1% NFDM (PBS+NFDM), and then washed (×3) with PBS, pH 7. […] Goat anti-mouse IgG alkaline phosphatase (cat. number: A1418, Sigma-Aldrich, St. Louis, Mo.) was diluted 1:15,000 in PBS+NFDM and added (100 uL) to each well, incubated 30 min at RT, and the wells washed (×3) with PBS, pH 7. PNPP at 1 mg/mL in 1M DEA with 50 mM MgCl2, pH 9.8 was added (100 uL per well), and the absorbance at 405 nm was determined using a Wallac Victor^2 Model 1420-041 assay plate reader (Perkin Elmer, Gaithersburg, Md.) every 5 minutes for a total of 6 reads. Absorbance values from known antibody concentration standards were used to determine the concentration of antibody in the serum samples.

A375 = assay: In vitro cancer cell cytotoxicity (CellTiter-Glo cell viability); format: cell-based, human; details: A375 cells, 3 days incubation
Source text: (§2) EDCs were constructed using linker-ready agents PEG24-CEN09-106, PEG24-CEN09-107, PEG24-CEN10-110 and PEG24-CEN-319. As described in Example 1, linker-ready agent PEG24-CEN-319 contain digitoxigenin while the others contain scillarenin. Linker-ready agents PEG24-CEN09-106, PEG24-CEN09-107, PEG24-CEN10-110 all use different linkers. Specifically, PEG24-CEN09-106 and PEG24-CEN09-107 have different sugars in the linker, while PEG24-CEN10-110 contains a longer linker that includes a primary amine.
(§3) All of the cell lines below, except H520, express the Na,K-ATPase with the dysadherin subunit and so present the target of the antibody and drug in close proximity.

A549 = assay: as above; format: cell-based, human; details: A549 cells, 3 days incubation
Source text: as §2, §3

PANC1 = assay: as above; format: cell-based, human; details: PANC cells, 3 days incubation
Source text: as §2, §3

[5] = Pharmacokinetics and serum stability, antibody and drug specific ELISA; format: in vivo, Balb/c mice; details: Balb/c mice, EDC drug loading of 3
Procedure: The steroid drug pharmacokinetics of M53-PEG24-CEN09-106 were measured using the drug specific ELISA described below. The comparison between the two ELISA results (antibody concentrations minus drug concentrations) was used to determine the rate of drug breakdown and thus examine M53-PEG24-CEN09-106 stability.
Serum was isolated from blood samples acquired by retro-orbital blood collection at 1, 2, 4, 8, 16, 26, and 40 days post-injection. […] Plasma concentrations of the steroid drug in M53-PEG24-CEN09-106 were measured as follows. Antigen coated ELISA plates were washed (×3) with PBS pH 7, blocked 30 min with PBS pH 7 containing 1% NFDM (PBS+NFDM), and then washed (×3) with PBS, pH 7. Diluted serum samples and standard curves of M53-PEG24-CEN09-106 were prepared in the above blocking buffer and applied to coated wells, incubated 30 min at RT, and the wells were washed (×3) with PBS, pH 7. Biotinylated 25C2E3 (a monoclonal IgG1 antibody specific for the steroid portion of PEG24-CEN09-106 and conjugated to biotin [Thermo Scientific, PN 21911]) was diluted to 100 ng/mL in PBS+NFDM and added (100 uL) to each well, incubated 30 min at RT, and the wells washed (×3) with PBS, pH 7. PNPP at 1 mg/mL in 1M DEA with 50 mM MgCl2, pH 9.8 was added (100 uL per well), and the absorbance at 405 nm was determined using a Wallac Victor^2 Model 1420-041 assay plate reader (Perkin Elmer, Gaithersburg, Md.) every 5 minutes for a total of 6 reads.
For both ELISAs, absorbance values from known standards were plotted as absorbance over time, generating a linear slope for each concentration. The slopes generated were then plotted against the respective concentrations of the standards, creating a second linear plot. The absorbance values for the unknown serum samples were plotted over time, establishing a slope for unknown sample. The linear estimate from the slope versus concentration plot was then used to extrapolate concentrations for each unknown sample based on their slope.
To determine serum stability of the intact EDC (drug release from the antibody over time) in these samples, the ratio of the slopes of serum decay of the drug portion to the serum decay of the antibody portion were calculated.

[6] = test system: human cell lines H460, A549, A375, PANC1, and H929; assay: In vitro cancer cell cytotoxicity, statements over the cell line panel; format: cell-based; details: at the highest concentrations tested
Source text: as §2, §3

peptide CENP018 = target: T1, peptide CENP018 (human, not fully specified); assay: immunoaffinity chromatography on CENP018 coupled to SulfoLink resin
T1 construct: also called 17
T1 peptide: PTRAPDAVYTELQC

human dysadherin [7] = target: T2, human dysadherin (human, UniProt Q96DB9 22-178); assay: cell-based or functional assay
T2 chain: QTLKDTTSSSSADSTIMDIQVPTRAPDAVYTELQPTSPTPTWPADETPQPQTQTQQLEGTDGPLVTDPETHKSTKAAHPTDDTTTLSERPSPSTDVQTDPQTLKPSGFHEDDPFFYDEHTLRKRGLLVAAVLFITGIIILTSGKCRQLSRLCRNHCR

human dysadherin [8] = target: T2, human dysadherin; assay: cell-based or functional assay
human dysadherin [9] = target: T2, human dysadherin; assay: cell-based or functional assay

C[C@H]1O[C@@H](O[C@H]2[C@@H](O)C[C@H](O[C@H]3[C@@H](O)C[C@H](O[C@H]4CC[C@@]5(C)[C@H](CC[C@@H]6[C@@H]5CC[C@]5(C)[C@@H](C7=CC(=O)OC7)CC[C@]65O)C4)O[C@@H]3C)O[C@@H]2C)C[C@H](O)[C@@H]1O [Digitoxin]
EC50 (A549 NSCLC cells): 17 nM | EC50 [1]: 135 nM | EC50 [2]: 39 nM | EC50 [3]: 47 nM

C[C@@H]1O[C@@H](O[C@@H]2C=C3CC[C@@H]4[C@H](CC[C@]5(C)[C@@H](c6ccc(=O)oc6)CC[C@]45O)[C@@]3(C)CC2)[C@H](O)[C@H](O)[C@H]1O [Proscillaridin]
EC50 (A549 NSCLC cells): 2.1 nM | EC50 [1]: 10 nM | EC50 [2]: 5.6 nM | EC50 [3]: 5.6 nM

B1: M53 (antibody)
heavy: EVQLVESGGGLVQPKGTLKLSCAASGFSFNTHAMNWVRQAPGKSLEWVARTMSKSNNYATYYADSVKDRFIIRADDSQSMLYLQMNNLKTEDTAMYYCVRDDPKRGMDYWGQGTSVTVSSAKTTPPSVYPLAPGSAAQTNSMVTLGCLVKGYFPEPVTVTWNSGSLSSGVHTFPAVLQSDLYTLSSSVTVPSSTWPSETVTCNVAHPASSTKVDKKIE
light: GIVMSQSPSSLAVSVGEKVTMSCKPSQSLLYSRNQKIYLAWYQQKPGQSPKLLIYWASTRESGVPDRFTGSGSGTDFTLIISSVRAEDLAVYYCQQYYNYPLTFGAGTKLELKRADAAPTVSIFPPSSEQLTSGGASVVCFLNNFYPKDINVKWKIDGSERQNGVLNSWTDQDSKDSTYSMSSTLTLTKDEYERHNSYTCEATHKTSTSPIVKSFNR
serum half-life of detectable (by antigen binding) antibody [4]: approximately 6 days | EC50 (A375): > 2000 nM | EC50 (A549): > 5000 nM | EC50 (PANC1): > 5000 nM | serum half-life of the antibody portion ([5]; 1 mg/kg tail vein): 11.9 days | serum half-life of the antibody portion ([5]; 10 mg/kg tail vein): 10.3 days | cytotoxicity of antibody alone [6]: inactive

B2: anti-FXYD5 scFv003 (scFv)
scFv: ECQLVESGGGLVQPKGTLKLSCAASGFSFNTHAMNWVRQAPGKSLEWVARTMSKSNNYATYYADSVKDRFIISRDDSQSMLYLQMNNLKTEDTAMYYCVRDDPKRGMDYWGQGTSVTVSSGGGGSGGGGSGGGGSGIVMSQSPSSLAVSVGEKVTMSCKPSQSLLYSRNQKIYLAWYQQKPGQSPKLLIYWASTRESGVPDRFTGSGSGTDFTLIISSVRAEDLAVYYCQQYYNYPLTFGAGTKLELK
notes: Unconjugated scFv, purified from E. coli lysate on CENP018 resin; also called CENscFv003
binding result (peptide CENP018): binds

B3: M53-PEG24-CEN09-106 (antibody, V domains shown)
VH: EVQLVESGGGLVQPKGTLKLSCAASGFSFNTHAMNWVRQAPGKSLEWVARTMSKSNNYATYYADSVKDRFIIRADDSQSMLYLQMNNLKTEDTAMYYCVRDDPKRGMDYWGQGTSVTVSS
VL: GIVMSQSPSSLAVSVGEKVTMSCKPSQSLLYSRNQKIYLAWYQQKPGQSPKLLIYWASTRESGVPDRFTGSGSGTDFTLIISSVRAEDLAVYYCQQYYNYPLTFGAGTKLELKR
modifications: PEG24-CEN09-106 on reduced cysteine thiols; positions not given; PEG24-CEN09-106 (scillarenin 4-amino-xyloside PEG24 maleimide linker-drug) on reduced cysteine thiols; positions not given
EC50, in vitro activity against A549 cells (human dysadherin [7]): 1.9 nM | EC50, cytotoxicity, A549 cells (drug alone, combination study) (human dysadherin [8]): 0.3 nM | EC50, cytotoxicity (CellTiter-Glo cell viability), A375 cells (human dysadherin [9]): 0.4 nM | EC50, cytotoxicity (CellTiter-Glo cell viability), A549 cells (human dysadherin [9]): 0.2 nM | EC50, cytotoxicity (CellTiter-Glo cell viability), H460 cells (human dysadherin [9]): 0.3 nM | EC50, cytotoxicity (CellTiter-Glo cell viability), H929 cells (human dysadherin [9]): 0.1 nM | EC50, cytotoxicity (CellTiter-Glo cell viability), PANC cells (human dysadherin [9]): 0.3 nM
